The text below walks through data of the Human Domainome abundance scans (Beltran et al. 2025).

± gives the uncertainty stated by the source.

B1: POU domain, class 3, transcription factor 4, residues 280 to 335; numbered along this chain, P49335 (parent)
chain: KKRTSIEVSVKGVLETHFLKCPKPAAQEISSLADSLQLEKEVVRVWFCNRRQKEKR

This series covers variants of B1. The series is described as follows: abundance fitness (aPCA) (normalised: wild type 0, dead -1); higher = more abundant; growth selection in yeast, the domain comes from the species named. To be noted: Homo sapiens.
Regarding KQRTSIEVSVKGVLETHFLKCPKPAAQEISSLADSLQLEKEVVRVWFCNRRQKEKR [K2Q], the abundance fitness was -0.637 ± 0.25.

On to KMRTSIEVSVKGVLETHFLKCPKPAAQEISSLADSLQLEKEVVRVWFCNRRQKEKR [K2M], for which the abundance fitness was -0.201 ± 0.24. To KSRTSIEVSVKGVLETHFLKCPKPAAQEISSLADSLQLEKEVVRVWFCNRRQKEKR [K2S] belongs -0.161 ± 0.14; to KNRTSIEVSVKGVLETHFLKCPKPAAQEISSLADSLQLEKEVVRVWFCNRRQKEKR [K2N], -0.058 ± 0.35. To KARTSIEVSVKGVLETHFLKCPKPAAQEISSLADSLQLEKEVVRVWFCNRRQKEKR [K2A] belongs -0.433 ± 0.21; to KDRTSIEVSVKGVLETHFLKCPKPAAQEISSLADSLQLEKEVVRVWFCNRRQKEKR [K2D], -0.342 ± 0.26.

Turning to KHRTSIEVSVKGVLETHFLKCPKPAAQEISSLADSLQLEKEVVRVWFCNRRQKEKR [K2H], the abundance fitness is -0.258 ± 0.23. The figure for KLRTSIEVSVKGVLETHFLKCPKPAAQEISSLADSLQLEKEVVRVWFCNRRQKEKR [K2L] is -0.093 ± 0.15. The figure for KTRTSIEVSVKGVLETHFLKCPKPAAQEISSLADSLQLEKEVVRVWFCNRRQKEKR [K2T] is -0.277 ± 0.2. For KERTSIEVSVKGVLETHFLKCPKPAAQEISSLADSLQLEKEVVRVWFCNRRQKEKR [K2E], the abundance fitness was -0.526 ± 0.28. In the case of KPRTSIEVSVKGVLETHFLKCPKPAAQEISSLADSLQLEKEVVRVWFCNRRQKEKR [K2P], the abundance fitness was -0.559 ± 0.27.

Take KVRTSIEVSVKGVLETHFLKCPKPAAQEISSLADSLQLEKEVVRVWFCNRRQKEKR [K2V]: the abundance fitness is -0.124 ± 0.15.

On to KRRTSIEVSVKGVLETHFLKCPKPAAQEISSLADSLQLEKEVVRVWFCNRRQKEKR [K2R], for which the abundance fitness was -0.225 ± 0.17. The figure for KYRTSIEVSVKGVLETHFLKCPKPAAQEISSLADSLQLEKEVVRVWFCNRRQKEKR [K2Y] is -0.159 ± 0.27. To KCRTSIEVSVKGVLETHFLKCPKPAAQEISSLADSLQLEKEVVRVWFCNRRQKEKR [K2C] belongs -0.8 ± 0.31. For KKFTSIEVSVKGVLETHFLKCPKPAAQEISSLADSLQLEKEVVRVWFCNRRQKEKR [R3F], the abundance fitness was -0.226 ± 0.19. Turning to KKMTSIEVSVKGVLETHFLKCPKPAAQEISSLADSLQLEKEVVRVWFCNRRQKEKR [R3M], the abundance fitness came to 0.011 ± 0.23. To KKWTSIEVSVKGVLETHFLKCPKPAAQEISSLADSLQLEKEVVRVWFCNRRQKEKR [R3W] belongs -0.706 ± 0.22. To KKQTSIEVSVKGVLETHFLKCPKPAAQEISSLADSLQLEKEVVRVWFCNRRQKEKR [R3Q] belongs -0.354 ± 0.21. In the case of KKYTSIEVSVKGVLETHFLKCPKPAAQEISSLADSLQLEKEVVRVWFCNRRQKEKR [R3Y], the abundance fitness came out at 0.069 ± 0.18. On to KKLTSIEVSVKGVLETHFLKCPKPAAQEISSLADSLQLEKEVVRVWFCNRRQKEKR [R3L], for which the abundance fitness is 0.306 ± 0.12.

Take KKITSIEVSVKGVLETHFLKCPKPAAQEISSLADSLQLEKEVVRVWFCNRRQKEKR [R3I]: the abundance fitness amounted to 0.104 ± 0.17. The figure for KKSTSIEVSVKGVLETHFLKCPKPAAQEISSLADSLQLEKEVVRVWFCNRRQKEKR [R3S] is 0.261 ± 0.12; for KKKTSIEVSVKGVLETHFLKCPKPAAQEISSLADSLQLEKEVVRVWFCNRRQKEKR [R3K] it is 0.03 ± 0.33; for KKNTSIEVSVKGVLETHFLKCPKPAAQEISSLADSLQLEKEVVRVWFCNRRQKEKR [R3N] it is 0.033 ± 0.24.

For KKTTSIEVSVKGVLETHFLKCPKPAAQEISSLADSLQLEKEVVRVWFCNRRQKEKR [R3T], the abundance fitness came out at 0.205 ± 0.14. Turning to KKHTSIEVSVKGVLETHFLKCPKPAAQEISSLADSLQLEKEVVRVWFCNRRQKEKR [R3H], the abundance fitness was -0.277 ± 0.31. To KKVTSIEVSVKGVLETHFLKCPKPAAQEISSLADSLQLEKEVVRVWFCNRRQKEKR [R3V] belongs -0.15 ± 0.13.

For the variant KKCTSIEVSVKGVLETHFLKCPKPAAQEISSLADSLQLEKEVVRVWFCNRRQKEKR [R3C], the abundance fitness is 0.174 ± 0.14. To KKATSIEVSVKGVLETHFLKCPKPAAQEISSLADSLQLEKEVVRVWFCNRRQKEKR [R3A] belongs -0.162 ± 0.14; to KKGTSIEVSVKGVLETHFLKCPKPAAQEISSLADSLQLEKEVVRVWFCNRRQKEKR [R3G], 0.077 ± 0.1; to KKPTSIEVSVKGVLETHFLKCPKPAAQEISSLADSLQLEKEVVRVWFCNRRQKEKR [R3P], 0.122 ± 0.16. To DKRTSIEVSVKGVLETHFLKCPKPAAQEISSLADSLQLEKEVVRVWFCNRRQKEKR [K1D] belongs -0.185 ± 0.49. The figure for MKRTSIEVSVKGVLETHFLKCPKPAAQEISSLADSLQLEKEVVRVWFCNRRQKEKR [K1M] is -0.03 ± 0.27; for RKRTSIEVSVKGVLETHFLKCPKPAAQEISSLADSLQLEKEVVRVWFCNRRQKEKR [K1R] it is -0.312 ± 0.2. Consider GKRTSIEVSVKGVLETHFLKCPKPAAQEISSLADSLQLEKEVVRVWFCNRRQKEKR [K1G], for which the abundance fitness is -0.243 ± 0.4.

Take EKRTSIEVSVKGVLETHFLKCPKPAAQEISSLADSLQLEKEVVRVWFCNRRQKEKR [K1E]: the abundance fitness was -0.049 ± 0.3. Regarding WKRTSIEVSVKGVLETHFLKCPKPAAQEISSLADSLQLEKEVVRVWFCNRRQKEKR [K1W], the abundance fitness was found to be 0.033 ± 0.42. The figure for SKRTSIEVSVKGVLETHFLKCPKPAAQEISSLADSLQLEKEVVRVWFCNRRQKEKR [K1S] is -0.132 ± 0.24; for KKRTAIEVSVKGVLETHFLKCPKPAAQEISSLADSLQLEKEVVRVWFCNRRQKEKR [S5A] it is 0.11 ± 0.13; for KKRTQIEVSVKGVLETHFLKCPKPAAQEISSLADSLQLEKEVVRVWFCNRRQKEKR [S5Q] it is 0.268 ± 0.18. As to KKRTIIEVSVKGVLETHFLKCPKPAAQEISSLADSLQLEKEVVRVWFCNRRQKEKR [S5I], the abundance fitness is -0.107 ± 0.2. To KKRTFIEVSVKGVLETHFLKCPKPAAQEISSLADSLQLEKEVVRVWFCNRRQKEKR [S5F] belongs -0.155 ± 0.21. The figure for KKRTHIEVSVKGVLETHFLKCPKPAAQEISSLADSLQLEKEVVRVWFCNRRQKEKR [S5H] is -0.187 ± 0.37; for KKRTCIEVSVKGVLETHFLKCPKPAAQEISSLADSLQLEKEVVRVWFCNRRQKEKR [S5C] it is 0.2 ± 0.16; for KKRTEIEVSVKGVLETHFLKCPKPAAQEISSLADSLQLEKEVVRVWFCNRRQKEKR [S5E] it is 0.565 ± 0.17. Consider KKRTGIEVSVKGVLETHFLKCPKPAAQEISSLADSLQLEKEVVRVWFCNRRQKEKR [S5G], for which the abundance fitness was determined as 0.27 ± 0.12. Consider KKRTMIEVSVKGVLETHFLKCPKPAAQEISSLADSLQLEKEVVRVWFCNRRQKEKR [S5M], for which the abundance fitness stood at 0.289 ± 0.22. To KKRTNIEVSVKGVLETHFLKCPKPAAQEISSLADSLQLEKEVVRVWFCNRRQKEKR [S5N] belongs 0.216 ± 0.24. The figure for KKRTLIEVSVKGVLETHFLKCPKPAAQEISSLADSLQLEKEVVRVWFCNRRQKEKR [S5L] is -0.045 ± 0.14; for KKRTKIEVSVKGVLETHFLKCPKPAAQEISSLADSLQLEKEVVRVWFCNRRQKEKR [S5K] it is 0.226 ± 0.27. The figure for KKRTDIEVSVKGVLETHFLKCPKPAAQEISSLADSLQLEKEVVRVWFCNRRQKEKR [S5D] is 0.405 ± 0.26.
